Measurements from patent publication US20230256092A1, “COMBINED USE OF ANTI-CCR8 ANTIBODY AND CHEMOTHERAPEUTIC AGENT” (Shionogi & Co., Ltd., priority 2020, published 2023).

T1: human CCR4 (Homo sapiens, UniProt P51679)
T1 construct: expressed in transfected cells; host or cells: Expi293 cells, pcDNA 3.4 vector, transient
T1 sequence (P51679 1-360): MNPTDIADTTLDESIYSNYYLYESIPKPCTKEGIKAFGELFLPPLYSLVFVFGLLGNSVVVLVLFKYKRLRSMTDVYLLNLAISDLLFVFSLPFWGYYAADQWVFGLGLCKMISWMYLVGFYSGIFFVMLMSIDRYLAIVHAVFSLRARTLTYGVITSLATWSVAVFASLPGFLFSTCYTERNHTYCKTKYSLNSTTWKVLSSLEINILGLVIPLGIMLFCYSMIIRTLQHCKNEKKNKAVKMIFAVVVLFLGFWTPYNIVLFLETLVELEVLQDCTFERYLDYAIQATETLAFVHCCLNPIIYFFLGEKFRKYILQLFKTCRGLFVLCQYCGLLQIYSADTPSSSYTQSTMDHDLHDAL

T2: mouse CCR8 (Mus musculus, UniProt P56484)
T2 construct: expressed in transfected cells; host or cells: Expi293 cells, pcDNA 3.4 vector, transient
T2 sequence (P56484 1-353): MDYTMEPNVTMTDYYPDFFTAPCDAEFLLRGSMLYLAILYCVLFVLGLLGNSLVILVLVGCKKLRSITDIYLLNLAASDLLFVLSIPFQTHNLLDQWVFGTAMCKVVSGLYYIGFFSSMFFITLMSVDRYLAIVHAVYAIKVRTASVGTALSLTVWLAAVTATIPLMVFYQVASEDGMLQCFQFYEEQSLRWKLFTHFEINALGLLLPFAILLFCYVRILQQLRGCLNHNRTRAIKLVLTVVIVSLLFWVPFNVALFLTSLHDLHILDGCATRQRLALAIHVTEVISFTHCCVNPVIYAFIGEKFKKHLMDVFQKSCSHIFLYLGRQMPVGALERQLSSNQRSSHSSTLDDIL


Columns and labels:
human CCR4 = target: T1, human CCR4; test: Antigen-binding test on transiently expressing Expi293 cells; design: key: an antibody having significantly reduced binding activity was indicated as A; an antibody having binding activity of the detection limit or less was indicated as x; The blank column means that it exhibits the same binding activity as the wild-type human CCR8 (hCCR8); conditions: 5, 0.5 and 0.05 ug/mL, in comparison to wild-type hCCR8
Excerpt: (§1) The gene encoding the full length of human CCR8 (UniProtKB/Swiss-Prot: P51685, SEQ ID NO: 1), the gene encoding the full length of human CCR4 (UniProtKB/Swiss-Prot: P51679, SEQ ID NO: 48) and the gene encoding the full length of mouse CCR8 (UniProtKB/Swiss-Prot: P56484, SEQ ID NO: 39) were cloned into pcDNA 3.4 vectors, respectively. These vectors were used for transfection to produce Expi293 cells transiently expressing human CCR8, human CCR4, or mouse CCR8. These cells were reacted with a dilution series of the purified antibodies of each clone, and the binding properties thereof were evaluated by detection with Alexa488-labeled anti-mouse IgG antibody (manufactured by Thermo Fisher Scientific). As a result, every antibody bound to human CCR8, but not to human CCR4 and mouse CCR8 at all.

mouse CCR8 = target: T2, mouse CCR8; test: as above; design: key: an antibody having significantly reduced binding activity was indicated as A; an antibody having binding activity of the detection limit or less was indicated as x; The blank column means that it exhibits the same binding activity as the wild-type human CCR8 (hCCR8); conditions: 5, 0.5 and 0.05 ug/mL, in comparison to wild-type hCCR8
Excerpt: as §1

human CCR8 = target: T3, human CCR8 (Homo sapiens, UniProt P51685); test: Neutralizing activity: inhibition of Ca2+ influx by 200 nM hCCL1 in human CCR8 expressing 293 cells (FLIPR), Test Example 6; assay type: cell-based; conditions: Table 9; WT IC50/mutant IC50; humanized 10A11 heavy chain CDR mutants, IGKV4-1/IGHV3-73
T3 construct: expressed in transfected cells; host or cells: 293 cells
Procedure: The antibody dilution diluted with a medium was added to human CCR8 expressing 293 cells in which a Ca^2+ indicator was incorporated beforehand, and Ca^2+ influx by addition of 200 nM hCCL1 (manufactured by BioLegend) was measured with FLIPR. […] The evaluation was performed at least three times, and IC50 was expressed as average±SD.

[1] = test system: colon cancer-derived Colon26 cells; test: Example 11: hCCR8-KI (KI/KI) mice inoculated with Colon26 cells, oxaliplatin combination (Part 2); assay type: in vivo, mouse; conditions: as Example 6; 2-7B part: oxaliplatin 10, 14, 17 days, antibody 14, 17 days; 19D7 part: oxaliplatin 10, 14 days, antibody 14 days; combinations from 10 days; Student's T one-sided
Procedure: The back of each hCCR8-KI (KI/KI) mouse (12 weeks old, female) prepared in Test Example 10 was intracutaneously inoculated with 3.5×10^5 colon cancer-derived Colon26 cells (50 uL).
To an oxaliplatin single administration group, saline was intravenously administered 5 days after tumor inoculation, and oxaliplatin (trade name: ELPLAT, Yakult Honsha Company, Limited) at 5 mg/kg body weight was intravenously administered 3 hours after the administration of the saline (N=10). To an anti-mouse CCR8 antibody and oxaliplatin combined administration group, an anti-human CCR8 antibody at 15 mg/kg body weight was intravenously administered 5 days after tumor inoculation, and oxaliplatin at 5 mg/kg body weight was intravenously administered 3 hours after the administration of the anti-mouse CCR8 antibody (N=10). To a control group, saline was intravenously administered 5 days after tumor inoculation, and saline was intravenously administered 3 hours after the administration of the saline (N=10). […] Tumor volumes were measured every 1 to 3 days from 4 days after tumor inoculation (a day before antibody administration). The tumor volume (mm^3) was measured in long diameter (mm)×short diameter (mm)×short diameter (mm)/2, and a significant difference test based on a Mann-Whitney U method (significance level: P<0.05) was conducted. […]

Molecule	IC50 ratio (human CCR8)	also measured
2C7: mouse anti-human CCR8 neutralizing antibody; light chain SEQ ID NO: 35, heavy chain SEQ ID NO: 36 (antibody, V domains shown, 2C7 VH; 2C7 VL) VH: QVQLKQSGPSLVQPSQSLSITCTVSGFSLTAYGVHWIRQSPGKGQEWLGVIWRGGSTDYNAAFMSRLTITKDNSKSQVFFKMNSLQADDTAIYYCAKKGGSYAMDYWGQGTSVTVSS VL: DVVLTQTPLSLPVSLGGQASISCRSSQSLVHSNGNTYLHWYLQKPGQSPKLLIYKVSNRFSGVPDRFSGSGSGTDFTLKISRVEAEDLGVYFCSQSTQVPLTFGAGTKLELKR	–	binding activity, hCCR4 (human CCR4): x; binding activity, mCCR8 (mouse CCR8): x
h10A11 (IGKV4-1/IGHV3-73 Y35F): humanized 10A11 heavy chain CDR point mutant (antibody, V domains shown) VL: DIVMTQSPDSLAVSLGERATINCRSSKSLLHSNGNTYLYWYQQKPGQPPKLLIYRMSNLASGVPDRFSGSGSGTDFTLTISSLQAEDVAVYYCMQHLEYPLTFGQGTKLEIKRT VH: EVQLVESGGGLVQPGGSLKLSCAASGFAFNTYALFWVRQASGKGLEWVGRIRSKSNNYATYYADSVKDRFTISRDDSKNTAYLQMNSLKTEDTAVYYCTRARFYYSDYGYAMDYWGQGTLVTVSS	n.d. (The n.d. (=not detectable) indicates that the IC50 value of the mutant is 10 nM or more)	–
h10A11 (IGKV4-1/IGHV3-73 D101E): humanized 10A11 heavy chain CDR point mutant (antibody, V domains shown) VL: DIVMTQSPDSLAVSLGERATINCRSSKSLLHSNGNTYLYWYQQKPGQPPKLLIYRMSNLASGVPDRFSGSGSGTDFTLTISSLQAEDVAVYYCMQHLEYPLTFGQGTKLEIKRT VH: EVQLVESGGGLVQPGGSLKLSCAASGFAFNTYALYWVRQASGKGLEWVGRIRSKSNNYATYYADSVKDRFTISRDDSKNTAYLQMNSLKTEDTAVYYCTRARFYYSDYGYAMEYWGQGTLVTVSS	n.d. (The n.d. (=not detectable) indicates that the IC50 value of the mutant is 10 nM or more)	–
h10A11 (IGKV4-1/IGHV3-73 Y102F): humanized 10A11 heavy chain CDR point mutant (antibody, V domains shown) VL: DIVMTQSPDSLAVSLGERATINCRSSKSLLHSNGNTYLYWYQQKPGQPPKLLIYRMSNLASGVPDRFSGSGSGTDFTLTISSLQAEDVAVYYCMQHLEYPLTFGQGTKLEIKRT VH: EVQLVESGGGLVQPGGSLKLSCAASGFAFNTYALYWVRQASGKGLEWVGRIRSKSNNYATYYADSVKDRFTISRDDSKNTAYLQMNSLKTEDTAVYYCTRARFYYSDYGYAMDFWGQGTLVTVSS	0.99	–
h10A11 (IGKV4-1/IGHV3-73 Y32F): humanized 10A11 heavy chain CDR point mutant (antibody, V domains shown) VL: DIVMTQSPDSLAVSLGERATINCRSSKSLLHSNGNTYLYWYQQKPGQPPKLLIYRMSNLASGVPDRFSGSGSGTDFTLTISSLQAEDVAVYYCMQHLEYPLTFGQGTKLEIKRT VH: EVQLVESGGGLVQPGGSLKLSCAASGFAFNTFALYWVRQASGKGLEWVGRIRSKSNNYATYYADSVKDRFTISRDDSKNTAYLQMNSLKTEDTAVYYCTRARFYYSDYGYAMDYWGQGTLVTVSS	0.44	–
h10A11 (IGKV4-1/IGHV3-73 T31A): humanized 10A11 heavy chain CDR point mutant (antibody, V domains shown) VL: DIVMTQSPDSLAVSLGERATINCRSSKSLLHSNGNTYLYWYQQKPGQPPKLLIYRMSNLASGVPDRFSGSGSGTDFTLTISSLQAEDVAVYYCMQHLEYPLTFGQGTKLEIKRT VH: EVQLVESGGGLVQPGGSLKLSCAASGFAFNAYALYWVRQASGKGLEWVGRIRSKSNNYATYYADSVKDRFTISRDDSKNTAYLQMNSLKTEDTAVYYCTRARFYYSDYGYAMDYWGQGTLVTVSS	0.17	–
h10A11 (IGKV4-1/IGHV3-73 A33V): humanized 10A11 heavy chain CDR point mutant (antibody, V domains shown) VL: DIVMTQSPDSLAVSLGERATINCRSSKSLLHSNGNTYLYWYQQKPGQPPKLLIYRMSNLASGVPDRFSGSGSGTDFTLTISSLQAEDVAVYYCMQHLEYPLTFGQGTKLEIKRT VH: EVQLVESGGGLVQPGGSLKLSCAASGFAFNTYVLYWVRQASGKGLEWVGRIRSKSNNYATYYADSVKDRFTISRDDSKNTAYLQMNSLKTEDTAVYYCTRARFYYSDYGYAMDYWGQGTLVTVSS	n.d. (The n.d. (=not detectable) indicates that the IC50 value of the mutant is 10 nM or more)	–
2-7B: rat anti-human CCR8 antibody; light chain SEQ ID NO: 37, heavy chain SEQ ID NO: 38 (antibody, V domains shown, 2-7B VH; 2-7B VL) VH: EVQLVESDGGLVQPGRSLKLSCAASGFTFSDYYMAWVRQAPTKGLEWVATITYDVYSTYYRDSVKGRFTISRDNAKSTLYLQMDSLRSEDTATYYCARHGGDGYNSGNWFAYWGQGTLVTVSS VL: DIVLTQSPALAVSLGQRATISCRASQSVSISRYNIMHWYQQKPGQQPKLLIYRASNLASGIPARFSGSGSGTDFTLTINPVQADDIATYYCQQSRESPPTFGGGTKLELKR	–	tumor volume as compared to the control group [1]: no significant decrease

More lines, main results first:

IC50 ratio (human CCR8)	Molecule	also measured
0.72	h10A11 (IGKV4-1/IGHV3-73 M100fL): humanized 10A11 heavy chain CDR point mutant (antibody, V domains shown) VL: DIVMTQSPDSLAVSLGERATINCRSSKSLLHSNGNTYLYWYQQKPGQPPKLLIYRMSNLASGVPDRFSGSGSGTDFTLTISSLQAEDVAVYYCMQHLEYPLTFGQGTKLEIKRT VH: EVQLVESGGGLVQPGGSLKLSCAASGFAFNTYALYWVRQASGKGLEWVGRIRSKSNNYATYYADSVKDRFTISRDDSKNTAYLQMNSLKTEDTAVYYCTRARFYYSDYGYALDYWGQGTLVTVSS	–
0.43	h10A11 (IGKV4-1/IGHV3-73 L34I): humanized 10A11 heavy chain CDR point mutant (antibody, V domains shown) VL: DIVMTQSPDSLAVSLGERATINCRSSKSLLHSNGNTYLYWYQQKPGQPPKLLIYRMSNLASGVPDRFSGSGSGTDFTLTISSLQAEDVAVYYCMQHLEYPLTFGQGTKLEIKRT VH: EVQLVESGGGLVQPGGSLKLSCAASGFAFNTYAIYWVRQASGKGLEWVGRIRSKSNNYATYYADSVKDRFTISRDDSKNTAYLQMNSLKTEDTAVYYCTRARFYYSDYGYAMDYWGQGTLVTVSS	–
